From PMC10248883 (The Journal of Biological Chemistry, 2023)

Legend:
[1] = target: NLuc–CLR–RAMP3 receptor (AM2R) in COS-7 membranes (human) (UniProt Q16602); experiment: FRET or BRET
RAMP2–CLR ECD = details: read-out: KI, equilibrium affinity; purified RAMP2–CLR ECD complex; ref [31]; cited from earlier work
RAMP3–CLR ECD = details: read-out: KI, equilibrium affinity; purified RAMP3–CLR ECD complex; ref [31]; cited from earlier work

NLuc–CLR–RAMP3 receptor (AM2R) in COS-7 membranes (human), sequence (Q16602 23-461, chain 1 of 2): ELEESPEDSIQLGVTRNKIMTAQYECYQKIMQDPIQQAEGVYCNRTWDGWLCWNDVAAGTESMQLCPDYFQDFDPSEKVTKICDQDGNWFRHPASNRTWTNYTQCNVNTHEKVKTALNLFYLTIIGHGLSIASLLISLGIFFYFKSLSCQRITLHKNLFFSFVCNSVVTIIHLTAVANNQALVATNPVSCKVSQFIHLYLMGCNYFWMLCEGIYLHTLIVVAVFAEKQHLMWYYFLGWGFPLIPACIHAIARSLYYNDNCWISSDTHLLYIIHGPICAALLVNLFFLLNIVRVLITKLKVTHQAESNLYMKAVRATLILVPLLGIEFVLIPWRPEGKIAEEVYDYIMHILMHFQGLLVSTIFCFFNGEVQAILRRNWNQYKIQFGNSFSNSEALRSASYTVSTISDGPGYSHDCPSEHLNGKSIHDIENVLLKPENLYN
NLuc–CLR–RAMP3 receptor (AM2R) in COS-7 membranes (human), sequence (O60896 24-148, chain 2 of 2, further chain): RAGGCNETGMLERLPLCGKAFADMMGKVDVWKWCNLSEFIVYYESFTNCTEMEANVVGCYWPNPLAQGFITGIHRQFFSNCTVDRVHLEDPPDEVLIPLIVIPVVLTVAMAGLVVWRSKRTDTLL

Kd [1] [nM]	half-life (t1/2) from the off-rate of the association kinetics [1] [min]	half-life of the fast component of dissociation [1] [min]	half-life of the slow component of dissociation [1] [min]	Substance	Ki (RAMP2–CLR ECD) [nM]	Ki (RAMP3–CLR ECD) [nM]
26	2.6	0.75	6.9	AM–TAMRA (peptide)		
				AM2/IMD: Synthetic human peptide AM2/IMD(1–47) purchased from Bachem	~14000	~2000
7	41	7	76	AM2/IMD–TAMRA (peptide)		
